From the supplement of paper PMC10567573 come the findings set out here.

The data set can be described thus: protein stability index of a GFP-peptide fusion (GPS, HEK-293T) (PSI 1-6); higher = more stable.
[1] abbreviates: treatment: DMSO, c terminus: a fixed tail appended.
The mark [2] stands for this setting: treatment: MLN4924 1 uM, 8 h, c terminus: a fixed tail appended.
Where [3] appears, read: treatment: DMSO, c terminus: native.
The mark [4] stands for this setting: treatment: MLN4924 1 uM, 8 h, c terminus: native.

± gives the standard deviation.
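Note: 24-mer peptide tiles fused after GFP, lentivirally expressed, FACS-sorted into six equal bins by GFP/DsRed ratio, decoded by Illumina sequencing, PSI is the read-weighted mean bin number.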

In the case of REVKVLLDQLRFPNGVQLSPAEDF [APMAP], the protein stability index by setting is: under setting [1], 2.97 ± 0.4; under setting [2], 2.95 ± 0.5. For RLFTQLKFGVVQTSVEECSQKGCL [CLCN6], in that order: 2.29 ± 0.46 and 2.61 ± 0.27. Take KISGGPRISYPLLHEWALREGEE [MAGEA6]: the protein stability index under setting [3] came out at 2.68 ± 0.52 and the protein stability index under setting [4] stood at 3.02 ± 0.65. Turning to NVLVDPSARIGQNCSIGPNVSLGP [GMPPB], the protein stability index reads like this: under setting [1], 3.61 ± 0.088; under setting [2], 3.43 ± 0.25.

Regarding ANWQPKVAPATWSAGVPPSAPLQG [SNAP91], the protein stability index reads like this: under setting [1], 4 ± 0.098; under setting [2], 3.85 ± 0.25. RVNKEHEHKLKVVRDQISHCTVKL [TRIM9]: the protein stability index runs as follows: under setting [1], 3.29 ± 0.31; under setting [2], 3.39 ± 0.29. For AQKQRLERALDATEVPFSITTDNL [TEKT4], in that order: 4.72 ± 0.29 and 4.77 ± 0.22. For LLMTADILAETGIRKTVKRLRKHQ [ELOA2], in that order: 2.41 ± 0.31 and 2.84 ± 0.25.

As to QSLDEPGGATFLLTAKQLIKSIVE [TRIM63], the protein stability index is 2.6 ± 0.33 under setting [1] and 2.32 ± 0.37 under setting [2].

With EDEDEDEDEDEDKEEEEEDCSEEY [TAF7L], the protein stability index came out at 5.65 ± 0.31 under setting [1] and 5.58 ± 0.13 under setting [2]. For DHPIVETLRQKAEADKNDKAVKDL [HSP90AB1], in that order: 5.58 ± 0.29 and 5.64 ± 0.14. Take YKAKSRSPGSPVGEGTGSPPKWQI [ADD1]: the protein stability index reads like this: under setting [1], 3.5 ± 0.28; under setting [2], 3.76 ± 0.33.

With GMEGDWSWVDDTPFNKVQSARFWI [CD207], the protein stability index by setting is: under setting [1], 1.82 ± 0.3; under setting [2], 2.25 ± 0.32. For the sequence AQTELLCCLVKMESLEPDAQVLML [FANCE], the protein stability index by setting is: under setting [1], 2.61 ± 0.68; under setting [2], 2.34 ± 0.16. Regarding MAAADAEAVPARGEPQQDCCVKTE [EHMT1], the protein stability index was 5.63 ± 0.21 under setting [1] and 5.53 ± 0.11 under setting [2]. As for FHINQTLREAHFHSLQHRGRPLT [FAM104A], the protein stability index reads like this: under setting [3], 2.3 ± 0.45; under setting [4], 2.2 ± 0.29. As to SGESNSAVSTEDLKECLKKQLEFC [LARP4], the protein stability index turned out to be 4.43 ± 0.49 under setting [1] and 4.64 ± 0.19 under setting [2].

Regarding RGLHEDLQGVPERLLGTAGTEEKK [VTI1B], the protein stability index by setting is: under setting [1], 5.38 ± 0.07; under setting [2], 5.58 ± 0.26.

As for DEPTFKVLLKTADPRYELPSRKYI [ZBED1], the protein stability index was 2.81 ± 0.26 under setting [1] and 3.19 ± 0.4 under setting [2].

Sequence CQVALNFANEEEAKKFRKAVTDLL [WASL] gave a protein stability index under setting [1] of 1.91 ± 0.35 and a protein stability index under setting [2] of 2.53 ± 0.84. In the same order, the values of PYVSDGNFSNYYVAHPPVTYSQPY [TENT5C] are 2.55 ± 0.39 and 2.62 ± 0.38. In the same order, the values of QQVKCIITEEKVCMVCKKKIGNSA [VPS39] are 3.24 ± 0.4 and 3.6 ± 0.66.

Regarding NDINILRVSNPGRLAELLLLETDA [GADD45A], the protein stability index reads like this: under setting [1], 2.31 ± 0.19; under setting [2], 2.5 ± 0.5. In the same order, the values of KFSPDGKYVVSGFDVDHGICIMDA [WDR88] are 2.69 ± 0.21 and 3.13 ± 0.49. Turning to GETDEVTKTEDRELVLRKDCPKIV [ZSCAN9], the protein stability index by setting is: under setting [1], 5.48 ± 0.14; under setting [2], 5.44 ± 0.24. Sequence GDDSDLSEGFESDSSHDSARASEG [SMG5] registered a protein stability index under setting [1] of 5.47 ± 0.3 and a protein stability index under setting [2] of 5.48 ± 0.13.

The sequence ELERAQHELLLGSLQQQHQADLEL [FBF1] displayed a protein stability index under setting [1] of 4.15 ± 0.21 and a protein stability index under setting [2] of 4.49 ± 0.28. Regarding RDKAEELLQLPDTKVGSFMIRESE [SLA], the protein stability index is, setting by setting: under setting [1], 4.66 ± 0.37; under setting [2], 4 ± 0.79. AELQAELLHSQARLAELEAQVRKL [FBF1]: the protein stability index reads like this: under setting [1], 4.29 ± 0.21; under setting [2], 4.26 ± 0.092. On to NKPAVKLLYNRSNNKYSYTSNSDD [KCTD10], for which the protein stability index is 4.1 ± 0.1 under setting [1] and 4.03 ± 0.31 under setting [2]. WMENNGHVAGEQMLEDGPHNANRG [CCDC70]: the protein stability index by setting is: under setting [1], 5.23 ± 0.39; under setting [2], 5.25 ± 0.14.

RMGSSESTDSGFCLDSPGPLDSKE [CDC25A]: the protein stability index runs as follows: under setting [1], 5.45 ± 0.14; under setting [2], 5.47 ± 0.44. In the case of IRNSRPLVKKVEEDEAGGRFVAFS [UFD1], the protein stability index was determined as 4.11 ± 0.15 under setting [1] and 4.05 ± 0.21 under setting [2]. Turning to LTQRQVNITVQKKVSQWWERLTKQ [HACD3], the protein stability index amounted to 2.55 ± 0.33 under setting [1] and 2.81 ± 0.24 under setting [2].

Under setting [2], CCIVTSTYGWTANMERIMKAQALR [HSP90AB1] yielded a protein stability index of 2.42 ± 0.4. For the sequence CHRHYHSMEVFTHYDLLNLNGTKV [LOXL2], the protein stability index under setting [1] is 2.21 ± 0.12 and the protein stability index under setting [2] was found to be 1.99 ± 0.25. With AKKLPPVQESQSERLQAAGTDSAG [ELOA2], the protein stability index was found to be 5.2 ± 0.18 under setting [1] and 5.09 ± 0.24 under setting [2]. Take IRQVLQGLDYLHSKCKIIHTDIKP [SRPK2]: the protein stability index runs as follows: under setting [1], 2.35 ± 0.44; under setting [2], 2.22 ± 0.23. For GSLDNAHHVPGGGNVKIDSQKLNF [MAP2], in that order: 4.27 ± 0.18 and 4.43 ± 0.32. In the same order, the values of SSLFSVEANSSNSQKNEKALTNIQ [C8orf76] are 4.93 ± 0.2 and 4.73 ± 0.21. For DYRPMNHEAFKDELKTFRLKTRSW [CDC25B], in that order: 3.46 ± 0.27 and 3.41 ± 0.25. As to SNSCQDSTDTESNNEEQRSGLIYL [IKZF1], the protein stability index by setting is: under setting [1], 4.67 ± 0.27; under setting [2], 4.735 ± 0.023. In the same order, the values of LLQRRKRENMSDGDTSATESGDEV [KMT2E] are 5.52 ± 0.17 and 5.32 ± 0.38. In the same order, the values of LGPRDAGTRGRLESAQATFQAHRD [ARFIP2] are 4.62 ± 0.35 and 4.67 ± 0.27. In the same order, the values of YKDRQKFSEQVFKVASSDLVNMGI [FLOT1] are 2.52 ± 0.24 and 2.77 ± 0.29. For the sequence VIQPALPGQPLPGASVRGLHPVQK [TRAF3IP2], the protein stability index is 3.76 ± 0.34 under setting [1] and 3.66 ± 0.39 under setting [2]. In turn, AKNYIWALSEILRIGKRPDLLTFV [NEUROD6] returned a protein stability index under setting [1] of 2.53 ± 0.52 and a protein stability index under setting [2] of 2.69 ± 0.92.

In turn, MATFPCQLCGKTFLTLEKFTIHNY [PLAGL1] registered a protein stability index under setting [1] of 2.47 ± 0.23 and a protein stability index under setting [2] of 2.4 ± 0.28. For KPLDLSDSTLSYTETEATNSLITA [SMAD6], in that order: 4.82 ± 0.2 and 4.92 ± 0.059. In the same order, the values of HWNGRHKPWDFPSVHNDLWESWFV [GLT8D2] are 2.28 ± 0.58 and 2.54 ± 0.52. Consider VRSTETVERDNMEEDNVEESEEEG [HDAC6], for which the protein stability index by setting is: under setting [1], 5.57 ± 0.45; under setting [2], 5.72 ± 0.24.

EEKAFESVIEPVQESSFRSRKIAV [MIA2] gave a protein stability index under setting [1] of 4.31 ± 0.16 and a protein stability index under setting [2] of 4.11 ± 0.22.

On to SIPLMGFEFEVRVCDSCHEAITDE [WDFY2], for which the protein stability index was determined as 3.38 ± 0.17 under setting [1] and 3.54 ± 0.32 under setting [2].

Turning to VLGINRAYGKNSLSKNLIKMLSKA [AUH], under setting [2], the protein stability index came to 2.244 ± 0.021.

Regarding KLFDDCTQQFKAEKLKEKLKMKER [PPP2R5C], the protein stability index under setting [1] came out at 3.43 ± 0.14 and the protein stability index under setting [2] amounted to 3.71 ± 0.15. With PVQELPPSLRAPPPGGWPLQPRVQ [ZMAT5], the protein stability index was determined as 4.02 ± 0.39 under setting [1] and 4.18 ± 0.25 under setting [2]. Consider VLELLGPSLEDLFDLCDRTFSLKT [CSNK1G3], for which the protein stability index by setting is: under setting [1], 2.38 ± 0.57; under setting [2], 2.36 ± 0.48. In the same order, the values of EREKVTPLMVKGFRDAAEEGGTAV [SEPHS2] are 5.24 ± 0.18 and 5.12 ± 0.16.

For PEVILELGWAQPCDVWSIGCILFE [CLK3], the protein stability index was found to be 2.63 ± 0.5 under setting [1] and 3.55 ± 1 under setting [2]. For KNELERDSKIVVPPLPGKALKRQL [SNX12], in that order: 4.5 ± 0.26 and 4.56 ± 0.2. Turning to EATQFLKQILDGVHYLHSKRIAHF [DAPK3], the protein stability index reads like this: under setting [1], 2.9 ± 0.44; under setting [2], 2.92 ± 0.56. Turning to SPIKPGDIKRGIPNYEFKLGKITF [UFD1], the protein stability index under setting [1] amounted to 2.65 ± 0.34 and the protein stability index under setting [2] was found to be 2.52 ± 0.39. In the same order, the values of LNKELNENQLVRKQDVLGPSTTPP [SASS6] are 5 ± 0.2 and 5.1 ± 0.071.

In the case of FSDLNSTRGDADMYDLPKKEDALL [EMD], the protein stability index was 4.77 ± 0.24 under setting [1] and 4.9 ± 0.05 under setting [2]. In the same order, the values of ATQQARKRNFISSKSKQPAGHRRP [C22orf31] are 4.58 ± 0.27 and 4.71 ± 0.31.

Take YFYHRETENEEQTQLTQNAVSCPY [KCNA4]: the protein stability index was found to be 3.88 ± 0.34 under setting [1] and 3.96 ± 0.17 under setting [2]. Take PVVWWLNLLSIALYLLSGSIIAVA [POMT2]: the protein stability index by setting is: under setting [1], 3.27 ± 0.14; under setting [2], 3.43 ± 0.18. For the sequence TLRSHLKSFSMAKGLNARMMRGLS [RAB40A], the protein stability index was 2.47 ± 0.19 under setting [1] and 2.78 ± 0.24 under setting [2]. For KACNKAVAGEFSEPVTLETPAFMF [FSD1], in that order: 2.84 ± 0.18 and 2.98 ± 0.33. Consider PAMGLQKKLRLNGGRNPYEGRVEV [LOXL2], for which the protein stability index under setting [2] came out at 4.08 ± 0.88. Regarding FFKGGGSSKSRAAPSPQEALVRLR [CHMP4C], the protein stability index is, setting by setting: under setting [1], 3.26 ± 0.053; under setting [2], 3.33 ± 0.052. SLALVQNGDVSAPSAILRTPESTK [ANKRD40]: the protein stability index is, setting by setting: under setting [1], 4.07 ± 0.36; under setting [2], 4.06 ± 0.17. On to YAFANVFHGWKYMFGLVIPLGVLQ [SLC2A12], for which the protein stability index is, setting by setting: under setting [1], 3.19 ± 0.62; under setting [2], 3.11 ± 0.52.
